target: SecYEG-SecDF•YajC (E. coli) (UniProt P0AGA2)

Molecule | % pOmpA Translocation, +YEG: in vitro translocation of pOmpA into liposomes with SecYEG-SecDF•YajC (% pOmpA Translocation) | Channel Activity, μA, +YEG: ion current in Xenopus oocytes injected with SecA, liposomes, SecYEG-SecDF•YajC, pOmpA, ATP-Mg [μA] | Channel Activity, μA, +YEG: ion current in Xenopus oocytes injected with the fragment, liposomes, SecYEG-SecDF•YajC, pOmpA, ATP-Mg [μA]
SecA N831 (SecA 1-831) (domain or fragment) MLIKLLTKVFGSRNDRTLRRMRKVVNIINAMEPEMEKLSDEELKGKTAEFRARLEKGEVLENLIPEAFAVVREASKRVFGMRHFDVQLLGGMVLNERCIAEMRTGEGKTLTATLPAYLNALTGKGVHVVTVNDYLAQRDAENNRPLFEFLGLTVGINLPGMPAPAKREAYAADITYGTNNEYGFDYLRDNMAFSPEERVQRKLHYALVDEVDSILIDEARTPLIISGPAEDSSEMYKRVNKIIPHLIRQEKEDSETFQGEGHFSVDEKSRQVNLTERGLVLIEELLVKEGIMDEGESLYSPANIMLMHHVTAALRAHALFTRDVDYIVKDGEVIIVDEHTGRTMQGRRWSDGLHQAVEAKEGVQIQNENQTLASITFQNYFRLYEKLAGMTGTADTEAFEFSSIYKLDTVVVPTNRPMIRKDLPDLVYMTEAEKIQAIIEDIKERTAKGQPVLVGTISIEKSELVSNELTKAGIKHNVLNAKFHANEAAIVAQAGYPAAVTIATNMAGRGTDIVLGGSWQAEVAALENPTAEQIEKIKADWQVRHDAVLEAGGLHIIGTERHESRRIDNQLRGRSGRQGDAGSSRFYLSMEDALMRIFASDRVSGMMRKLGMKPGEAIEHPWVTKAIANAQRKVESRNFDIRKQLLEYDDVANDQRRAIYSQRNELLDVSDVSETINSIREDVFKATIDAYIPPQSLEEMWDIPGLQERLKNDFDLDLPIAEWLDKEPELHEETLRERILAQSIEVYQRKEEVVGAEMMRHFEKGVMLQTLDSLWKEHLAAMDYLRQGIHLRGYAQKDPKQEYKRESFSMFAAMLESLKYEVISTLSKVQV | 71.2 | – | 5.8
SecA N609 (SecA 1-609) (domain or fragment) MLIKLLTKVFGSRNDRTLRRMRKVVNIINAMEPEMEKLSDEELKGKTAEFRARLEKGEVLENLIPEAFAVVREASKRVFGMRHFDVQLLGGMVLNERCIAEMRTGEGKTLTATLPAYLNALTGKGVHVVTVNDYLAQRDAENNRPLFEFLGLTVGINLPGMPAPAKREAYAADITYGTNNEYGFDYLRDNMAFSPEERVQRKLHYALVDEVDSILIDEARTPLIISGPAEDSSEMYKRVNKIIPHLIRQEKEDSETFQGEGHFSVDEKSRQVNLTERGLVLIEELLVKEGIMDEGESLYSPANIMLMHHVTAALRAHALFTRDVDYIVKDGEVIIVDEHTGRTMQGRRWSDGLHQAVEAKEGVQIQNENQTLASITFQNYFRLYEKLAGMTGTADTEAFEFSSIYKLDTVVVPTNRPMIRKDLPDLVYMTEAEKIQAIIEDIKERTAKGQPVLVGTISIEKSELVSNELTKAGIKHNVLNAKFHANEAAIVAQAGYPAAVTIATNMAGRGTDIVLGGSWQAEVAALENPTAEQIEKIKADWQVRHDAVLEAGGLHIIGTERHESRRIDNQLRGRSGRQGDAGSSRFYLSMEDALMRIFASDRVSGMMRK | 0 | – | 0
SecA N619 (SecA 1-619) (domain or fragment) MLIKLLTKVFGSRNDRTLRRMRKVVNIINAMEPEMEKLSDEELKGKTAEFRARLEKGEVLENLIPEAFAVVREASKRVFGMRHFDVQLLGGMVLNERCIAEMRTGEGKTLTATLPAYLNALTGKGVHVVTVNDYLAQRDAENNRPLFEFLGLTVGINLPGMPAPAKREAYAADITYGTNNEYGFDYLRDNMAFSPEERVQRKLHYALVDEVDSILIDEARTPLIISGPAEDSSEMYKRVNKIIPHLIRQEKEDSETFQGEGHFSVDEKSRQVNLTERGLVLIEELLVKEGIMDEGESLYSPANIMLMHHVTAALRAHALFTRDVDYIVKDGEVIIVDEHTGRTMQGRRWSDGLHQAVEAKEGVQIQNENQTLASITFQNYFRLYEKLAGMTGTADTEAFEFSSIYKLDTVVVPTNRPMIRKDLPDLVYMTEAEKIQAIIEDIKERTAKGQPVLVGTISIEKSELVSNELTKAGIKHNVLNAKFHANEAAIVAQAGYPAAVTIATNMAGRGTDIVLGGSWQAEVAALENPTAEQIEKIKADWQVRHDAVLEAGGLHIIGTERHESRRIDNQLRGRSGRQGDAGSSRFYLSMEDALMRIFASDRVSGMMRKLGMKPGEAIE | 0 | – | 0

Continued, values first:

% pOmpA Translocation, +YEG: in vitro translocation of pOmpA into liposomes with SecYEG-SecDF•YajC (% pOmpA Translocation) | Channel Activity, μA, +YEG: ion current in Xenopus oocytes injected with SecA, liposomes, SecYEG-SecDF•YajC, pOmpA, ATP-Mg [μA] | Channel Activity, μA, +YEG: ion current in Xenopus oocytes injected with the fragment, liposomes, SecYEG-SecDF•YajC, pOmpA, ATP-Mg [μA] | Molecule
97 | 7 | – | E. coli SecA (from UniProt P10408 1-901) (natural protein)
0 | – | – | SecA N772 (SecA 1-772) (from UniProt P10408 1-772) (domain or fragment)
– | – | 0.4 | SecA N629* (SecA 1-629, N629D) (domain or fragment) MLIKLLTKVFGSRNDRTLRRMRKVVNIINAMEPEMEKLSDEELKGKTAEFRARLEKGEVLENLIPEAFAVVREASKRVFGMRHFDVQLLGGMVLNERCIAEMRTGEGKTLTATLPAYLNALTGKGVHVVTVNDYLAQRDAENNRPLFEFLGLTVGINLPGMPAPAKREAYAADITYGTNNEYGFDYLRDNMAFSPEERVQRKLHYALVDEVDSILIDEARTPLIISGPAEDSSEMYKRVNKIIPHLIRQEKEDSETFQGEGHFSVDEKSRQVNLTERGLVLIEELLVKEGIMDEGESLYSPANIMLMHHVTAALRAHALFTRDVDYIVKDGEVIIVDEHTGRTMQGRRWSDGLHQAVEAKEGVQIQNENQTLASITFQNYFRLYEKLAGMTGTADTEAFEFSSIYKLDTVVVPTNRPMIRKDLPDLVYMTEAEKIQAIIEDIKERTAKGQPVLVGTISIEKSELVSNELTKAGIKHNVLNAKFHANEAAIVAQAGYPAAVTIATNMAGRGTDIVLGGSWQAEVAALENPTAEQIEKIKADWQVRHDAVLEAGGLHIIGTERHESRRIDNQLRGRSGRQGDAGSSRFYLSMEDALMRIFASDRVSGMMRKLGMKPGEAIEHPWVTKAIAD
0 | – | 5.8 | SecA N649 (SecA 1-649) (domain or fragment) MLIKLLTKVFGSRNDRTLRRMRKVVNIINAMEPEMEKLSDEELKGKTAEFRARLEKGEVLENLIPEAFAVVREASKRVFGMRHFDVQLLGGMVLNERCIAEMRTGEGKTLTATLPAYLNALTGKGVHVVTVNDYLAQRDAENNRPLFEFLGLTVGINLPGMPAPAKREAYAADITYGTNNEYGFDYLRDNMAFSPEERVQRKLHYALVDEVDSILIDEARTPLIISGPAEDSSEMYKRVNKIIPHLIRQEKEDSETFQGEGHFSVDEKSRQVNLTERGLVLIEELLVKEGIMDEGESLYSPANIMLMHHVTAALRAHALFTRDVDYIVKDGEVIIVDEHTGRTMQGRRWSDGLHQAVEAKEGVQIQNENQTLASITFQNYFRLYEKLAGMTGTADTEAFEFSSIYKLDTVVVPTNRPMIRKDLPDLVYMTEAEKIQAIIEDIKERTAKGQPVLVGTISIEKSELVSNELTKAGIKHNVLNAKFHANEAAIVAQAGYPAAVTIATNMAGRGTDIVLGGSWQAEVAALENPTAEQIEKIKADWQVRHDAVLEAGGLHIIGTERHESRRIDNQLRGRSGRQGDAGSSRFYLSMEDALMRIFASDRVSGMMRKLGMKPGEAIEHPWVTKAIANAQRKVESRNFDIRKQLLEYD
